For one substance, reduction of the IFI16-H2B co-precipitate on BRCA1 knockdown and reduction of the IFI16-H2B co-precipitate on cGAS knockdown results are on record in PMC5072618.

The target in assay [1] is IFI16 (gamma-interferon-inducible protein 16) (human (endogenous in HMVEC-d, HFF, BJAB, BCBL-1)) (UniProt Q16666). Briefly: co-IP; whole cell lysates of KSHV infected HMVEC-d cells electroporated with siBRCA1 (48 h); IP with anti-IFI16 antibody.
Assay [2] shares this target. Kind of assay: co-IP; whole cell lysates of KSHV infected HMVEC-d cells (4 h; 30 min, 4 and 24 h for the p300 blot); IP with anti-Ran, anti-IFI16, anti-STING or anti-ASC antibodies; cells untreated or electroporated with siC, sicGAS or siASC.

Chain of UniProt Q16666 (Q16666 whole entry): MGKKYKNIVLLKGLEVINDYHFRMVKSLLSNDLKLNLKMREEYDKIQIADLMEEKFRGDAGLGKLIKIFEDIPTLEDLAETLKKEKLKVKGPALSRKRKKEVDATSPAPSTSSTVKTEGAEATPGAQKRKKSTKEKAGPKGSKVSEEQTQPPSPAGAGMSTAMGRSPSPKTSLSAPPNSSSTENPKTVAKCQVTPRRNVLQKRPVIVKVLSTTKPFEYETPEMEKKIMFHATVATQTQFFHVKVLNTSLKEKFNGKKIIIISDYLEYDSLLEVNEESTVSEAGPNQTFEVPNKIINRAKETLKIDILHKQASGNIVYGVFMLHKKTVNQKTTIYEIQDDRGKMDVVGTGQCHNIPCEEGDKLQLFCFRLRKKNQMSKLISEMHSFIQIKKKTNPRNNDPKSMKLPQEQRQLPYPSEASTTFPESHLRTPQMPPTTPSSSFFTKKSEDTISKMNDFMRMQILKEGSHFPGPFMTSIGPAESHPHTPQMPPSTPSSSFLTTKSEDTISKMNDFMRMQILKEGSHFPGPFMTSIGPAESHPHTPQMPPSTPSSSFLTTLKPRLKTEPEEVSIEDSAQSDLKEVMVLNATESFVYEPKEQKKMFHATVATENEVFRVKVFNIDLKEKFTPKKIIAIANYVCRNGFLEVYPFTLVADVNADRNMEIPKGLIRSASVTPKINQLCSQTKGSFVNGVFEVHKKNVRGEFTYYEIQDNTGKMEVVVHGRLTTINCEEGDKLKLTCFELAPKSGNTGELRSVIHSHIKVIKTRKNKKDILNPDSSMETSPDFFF

“histone H2B (from UniProt P62807 1-126) (natural protein)”: in assay [1], the reduction of the IFI16-H2B co-precipitate on BRCA1 knockdown was 40%. In assay [2], this substance displayed a reduction of the IFI16-H2B co-precipitate on cGAS knockdown of 25%.
